Where no end group is shown, it is not given here.
Experiments:
Assay in all cases: cell-based or functional assay
[1] = target: HTR1E (UniProt P28566 1-365)
[2] = target: HTR2A (UniProt P28223 1-471)
[3] = target: T1, NPY1R (UniProt P25929 1-384)
T1 sequence (looked up): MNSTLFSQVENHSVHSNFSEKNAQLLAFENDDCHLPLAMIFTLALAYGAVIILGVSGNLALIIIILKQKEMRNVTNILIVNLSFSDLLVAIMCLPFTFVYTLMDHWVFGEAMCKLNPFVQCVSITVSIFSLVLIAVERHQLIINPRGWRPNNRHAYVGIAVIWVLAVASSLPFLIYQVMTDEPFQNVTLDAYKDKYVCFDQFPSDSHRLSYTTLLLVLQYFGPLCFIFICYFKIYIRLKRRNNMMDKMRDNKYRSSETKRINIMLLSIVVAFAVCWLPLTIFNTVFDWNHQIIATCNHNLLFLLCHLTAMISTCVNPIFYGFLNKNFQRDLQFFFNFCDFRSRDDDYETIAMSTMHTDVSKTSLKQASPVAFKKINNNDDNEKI

[4] = target: OPRD1 (UniProt P41143 1-372)
[5] = target: OPRK1 (UniProt P41145 1-380)
[6] = target: PTHR2 (UniProt P49190 25-550)
[7] = target: T2, TACR2 (UniProt P21452 1-398)
T2 sequence (looked up): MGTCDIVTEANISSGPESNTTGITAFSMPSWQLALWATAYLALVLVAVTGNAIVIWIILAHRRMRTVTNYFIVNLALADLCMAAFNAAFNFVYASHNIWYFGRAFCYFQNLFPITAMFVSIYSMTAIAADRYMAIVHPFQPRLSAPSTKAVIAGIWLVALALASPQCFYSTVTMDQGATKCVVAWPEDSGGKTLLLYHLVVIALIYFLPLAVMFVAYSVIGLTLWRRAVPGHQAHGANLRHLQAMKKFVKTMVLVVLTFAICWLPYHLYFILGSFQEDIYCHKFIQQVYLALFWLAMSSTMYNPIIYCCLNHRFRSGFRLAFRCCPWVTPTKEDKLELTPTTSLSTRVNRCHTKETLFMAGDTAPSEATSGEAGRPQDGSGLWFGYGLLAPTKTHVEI

[8] = target: T3, C3AR1 (UniProt Q16581 1-482)
T3 sequence (looked up): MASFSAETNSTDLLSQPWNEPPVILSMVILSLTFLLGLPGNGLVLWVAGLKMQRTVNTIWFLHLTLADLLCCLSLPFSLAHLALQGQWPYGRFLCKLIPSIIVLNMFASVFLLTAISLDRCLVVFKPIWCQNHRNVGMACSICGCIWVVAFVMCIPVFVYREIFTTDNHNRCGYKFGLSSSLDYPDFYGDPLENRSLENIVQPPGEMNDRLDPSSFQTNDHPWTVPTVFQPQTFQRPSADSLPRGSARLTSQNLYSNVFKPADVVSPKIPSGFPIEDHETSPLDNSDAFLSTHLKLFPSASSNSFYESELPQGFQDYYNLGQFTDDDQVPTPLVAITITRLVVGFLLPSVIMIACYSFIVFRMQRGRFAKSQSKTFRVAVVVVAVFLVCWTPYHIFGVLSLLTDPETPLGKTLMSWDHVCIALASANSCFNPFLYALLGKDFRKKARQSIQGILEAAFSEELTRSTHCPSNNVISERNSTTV

[9] = target: CCR5 (UniProt P51681 1-352)
[10] = target: T4, CX3CR1 (UniProt P49238 1-355)
T4 sequence (looked up): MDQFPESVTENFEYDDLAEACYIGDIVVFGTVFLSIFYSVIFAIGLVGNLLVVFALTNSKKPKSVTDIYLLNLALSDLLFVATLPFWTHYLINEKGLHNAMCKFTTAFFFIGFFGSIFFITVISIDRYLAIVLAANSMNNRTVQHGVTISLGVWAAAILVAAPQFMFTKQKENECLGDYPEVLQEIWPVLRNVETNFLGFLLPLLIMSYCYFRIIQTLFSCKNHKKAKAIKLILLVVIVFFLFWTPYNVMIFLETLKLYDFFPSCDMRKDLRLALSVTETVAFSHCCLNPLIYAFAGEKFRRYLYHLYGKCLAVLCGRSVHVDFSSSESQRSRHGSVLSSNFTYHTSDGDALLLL

[11] = target: CXCR6 (UniProt O00574 1-342)
[12] = target: T5, ADRA2A (UniProt P08913 1-465)
T5 sequence (looked up): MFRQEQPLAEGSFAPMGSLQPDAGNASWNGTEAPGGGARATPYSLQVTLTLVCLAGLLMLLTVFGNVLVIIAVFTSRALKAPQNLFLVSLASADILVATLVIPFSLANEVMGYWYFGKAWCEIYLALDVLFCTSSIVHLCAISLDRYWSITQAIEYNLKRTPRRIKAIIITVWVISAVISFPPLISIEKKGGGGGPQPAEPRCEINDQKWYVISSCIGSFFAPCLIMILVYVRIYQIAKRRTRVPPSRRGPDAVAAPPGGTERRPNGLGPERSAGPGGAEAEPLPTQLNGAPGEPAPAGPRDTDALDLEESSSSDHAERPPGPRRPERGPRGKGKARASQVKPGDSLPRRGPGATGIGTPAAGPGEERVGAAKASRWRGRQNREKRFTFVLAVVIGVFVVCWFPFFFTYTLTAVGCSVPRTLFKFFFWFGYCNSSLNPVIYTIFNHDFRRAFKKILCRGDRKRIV

[13] = target: GHSR (UniProt Q92847 1-366)
[14] = target: GPR109A (UniProt Q8TDS4 1-363)
Chain of GPR109A (Q8TDS4 whole entry): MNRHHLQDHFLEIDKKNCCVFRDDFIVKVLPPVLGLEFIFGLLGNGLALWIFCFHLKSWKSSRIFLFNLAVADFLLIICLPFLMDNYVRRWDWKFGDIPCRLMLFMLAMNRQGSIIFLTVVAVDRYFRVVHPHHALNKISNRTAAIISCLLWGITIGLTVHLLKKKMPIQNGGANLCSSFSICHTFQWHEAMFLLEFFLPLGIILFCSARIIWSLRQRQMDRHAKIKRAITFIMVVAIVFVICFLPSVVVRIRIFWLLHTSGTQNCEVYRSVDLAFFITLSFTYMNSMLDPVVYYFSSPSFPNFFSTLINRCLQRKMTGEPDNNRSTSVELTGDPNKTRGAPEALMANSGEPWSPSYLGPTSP

Chain of OPRD1 (P41143 whole entry): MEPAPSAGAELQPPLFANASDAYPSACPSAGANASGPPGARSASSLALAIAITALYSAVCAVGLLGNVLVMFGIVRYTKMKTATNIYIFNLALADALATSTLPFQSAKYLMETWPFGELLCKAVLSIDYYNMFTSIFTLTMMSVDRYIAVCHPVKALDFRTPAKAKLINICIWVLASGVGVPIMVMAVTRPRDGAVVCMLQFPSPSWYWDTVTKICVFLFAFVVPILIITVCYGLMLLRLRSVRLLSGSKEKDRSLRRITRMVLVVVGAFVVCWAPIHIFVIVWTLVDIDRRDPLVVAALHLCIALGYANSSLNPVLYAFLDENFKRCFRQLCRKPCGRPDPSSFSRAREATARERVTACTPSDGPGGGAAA
Chain of OPRK1 (P41145 whole entry): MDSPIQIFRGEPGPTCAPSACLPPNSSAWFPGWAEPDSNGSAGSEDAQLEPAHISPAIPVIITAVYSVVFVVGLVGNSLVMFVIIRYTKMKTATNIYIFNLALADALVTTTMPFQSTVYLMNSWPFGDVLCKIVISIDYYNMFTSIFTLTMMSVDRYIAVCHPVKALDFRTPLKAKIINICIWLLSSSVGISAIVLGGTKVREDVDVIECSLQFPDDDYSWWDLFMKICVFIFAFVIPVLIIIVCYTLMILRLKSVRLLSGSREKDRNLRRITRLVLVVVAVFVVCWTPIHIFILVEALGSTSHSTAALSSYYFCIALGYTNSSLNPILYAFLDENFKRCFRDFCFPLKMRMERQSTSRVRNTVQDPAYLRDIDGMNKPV
Chain of CCR5 (P51681 whole entry): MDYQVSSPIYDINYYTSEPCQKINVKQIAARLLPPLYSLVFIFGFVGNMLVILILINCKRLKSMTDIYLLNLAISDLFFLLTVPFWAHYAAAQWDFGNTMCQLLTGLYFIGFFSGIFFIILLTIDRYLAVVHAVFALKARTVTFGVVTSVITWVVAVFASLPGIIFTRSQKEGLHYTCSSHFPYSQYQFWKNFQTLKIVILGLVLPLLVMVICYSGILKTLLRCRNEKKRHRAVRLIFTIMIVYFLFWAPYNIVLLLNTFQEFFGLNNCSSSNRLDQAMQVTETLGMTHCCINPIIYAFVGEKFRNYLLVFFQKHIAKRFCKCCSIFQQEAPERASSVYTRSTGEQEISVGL
Chain of HTR1E (P28566 whole entry): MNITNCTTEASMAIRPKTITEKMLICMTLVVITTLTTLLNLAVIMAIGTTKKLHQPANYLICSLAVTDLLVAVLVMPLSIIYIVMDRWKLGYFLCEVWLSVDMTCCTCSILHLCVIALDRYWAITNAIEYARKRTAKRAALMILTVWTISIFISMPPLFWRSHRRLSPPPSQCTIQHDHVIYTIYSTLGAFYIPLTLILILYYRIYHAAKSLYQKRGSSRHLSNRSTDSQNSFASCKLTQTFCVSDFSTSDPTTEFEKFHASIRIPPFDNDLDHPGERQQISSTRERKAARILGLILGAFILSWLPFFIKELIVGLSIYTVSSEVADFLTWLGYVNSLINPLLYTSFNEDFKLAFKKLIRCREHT
Chain of GHSR (Q92847 whole entry): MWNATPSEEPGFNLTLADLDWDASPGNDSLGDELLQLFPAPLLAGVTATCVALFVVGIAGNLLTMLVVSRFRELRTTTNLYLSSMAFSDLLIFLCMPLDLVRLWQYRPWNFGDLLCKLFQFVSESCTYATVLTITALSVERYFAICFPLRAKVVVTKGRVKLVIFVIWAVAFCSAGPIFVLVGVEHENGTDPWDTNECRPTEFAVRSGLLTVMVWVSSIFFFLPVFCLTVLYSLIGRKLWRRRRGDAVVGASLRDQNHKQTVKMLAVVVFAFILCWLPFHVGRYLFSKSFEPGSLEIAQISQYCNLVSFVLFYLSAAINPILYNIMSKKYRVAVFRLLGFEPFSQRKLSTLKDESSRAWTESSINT
Chain of PTHR2 (P49190 25-550 limits assumed): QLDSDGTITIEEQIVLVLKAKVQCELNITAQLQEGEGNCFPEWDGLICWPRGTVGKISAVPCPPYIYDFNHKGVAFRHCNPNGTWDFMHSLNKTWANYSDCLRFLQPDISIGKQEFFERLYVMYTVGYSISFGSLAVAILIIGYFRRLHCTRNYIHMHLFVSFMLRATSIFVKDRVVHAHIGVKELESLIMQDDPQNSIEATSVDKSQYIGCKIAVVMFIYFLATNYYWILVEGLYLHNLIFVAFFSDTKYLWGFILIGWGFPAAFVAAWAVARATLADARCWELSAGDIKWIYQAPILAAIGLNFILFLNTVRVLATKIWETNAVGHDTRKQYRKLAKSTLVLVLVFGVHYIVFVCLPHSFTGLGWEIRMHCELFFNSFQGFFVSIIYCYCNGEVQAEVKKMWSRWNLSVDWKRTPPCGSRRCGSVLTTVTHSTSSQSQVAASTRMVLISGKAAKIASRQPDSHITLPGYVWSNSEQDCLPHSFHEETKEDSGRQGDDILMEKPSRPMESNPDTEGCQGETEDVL
Chain of HTR2A (P28223 whole entry): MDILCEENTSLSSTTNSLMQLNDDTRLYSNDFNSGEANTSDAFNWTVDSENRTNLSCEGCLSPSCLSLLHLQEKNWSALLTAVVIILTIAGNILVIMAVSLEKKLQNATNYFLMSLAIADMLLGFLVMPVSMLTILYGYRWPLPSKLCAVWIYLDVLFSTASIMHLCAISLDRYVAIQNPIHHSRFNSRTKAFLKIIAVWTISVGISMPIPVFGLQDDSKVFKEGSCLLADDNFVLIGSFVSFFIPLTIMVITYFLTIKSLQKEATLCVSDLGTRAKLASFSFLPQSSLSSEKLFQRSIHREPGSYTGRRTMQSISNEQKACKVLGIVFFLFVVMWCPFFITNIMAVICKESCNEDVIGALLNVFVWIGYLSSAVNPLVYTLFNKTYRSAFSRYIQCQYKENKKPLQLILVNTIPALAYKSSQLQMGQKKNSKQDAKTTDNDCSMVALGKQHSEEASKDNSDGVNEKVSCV
Chain of CXCR6 (O00574 whole entry): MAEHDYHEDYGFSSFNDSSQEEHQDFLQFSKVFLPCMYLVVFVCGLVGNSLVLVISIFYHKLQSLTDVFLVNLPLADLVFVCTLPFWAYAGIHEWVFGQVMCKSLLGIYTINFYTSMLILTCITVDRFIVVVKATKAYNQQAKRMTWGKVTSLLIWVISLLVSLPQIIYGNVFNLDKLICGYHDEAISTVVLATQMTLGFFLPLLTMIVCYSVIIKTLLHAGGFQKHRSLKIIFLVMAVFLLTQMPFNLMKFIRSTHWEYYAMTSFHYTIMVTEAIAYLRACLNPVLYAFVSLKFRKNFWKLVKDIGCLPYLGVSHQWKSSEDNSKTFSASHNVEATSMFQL

B1: octadecaneuropeptide (ODN) (peptide)
peptide: QATVGDVNTDRPGLLDLK
modifications: also: synthesised on Rink amide resin, C-terminal amide not given here outright
- % Activity, arrestin, antagonist mode, 2.5 uM [1]: -3.8%
- % Activity, arrestin, antagonist mode, 2.5 uM [2]: -9.7%
- % Activity, arrestin, antagonist mode, 2.5 uM [3]: -2.7%
- % Activity, arrestin, antagonist mode, 2.5 uM [4]: 10%
- % Activity, arrestin, antagonist mode, 2.5 uM [5]: -4.5%
- % Activity, arrestin, antagonist mode, 2.5 uM [6]: 4.5%
- % Activity, arrestin, antagonist mode, 2.5 uM [7]: 8.3%
- % Activity, arrestin, antagonist mode, 2.5 uM [8]: 4%
- % Activity, arrestin, antagonist mode, 2.5 uM [9]: -16.1%
- % Activity, arrestin, antagonist mode, 2.5 uM [10]: -0.8%
- % Activity, arrestin, antagonist mode, 2.5 uM [11]: -1.3%
- % Activity, arrestin, antagonist mode, 2.5 uM [12]: -27.2%
- % Activity, arrestin, antagonist mode, 2.5 uM [13]: -7.4%
- % Activity, arrestin, antagonist mode, 2.5 uM [14]: -16%

Source: patent US20260184748A1 (University of Pennsylvania, published 2026)
